Assay results from US11534528B2, “Sterilization of self-assembling peptides by irradiation” (3-D Matrix, Ltd., priority 2020, dated 2022).
Where “and” joins values, the source holds several entries; their conditions need not be identical. Equal entries are not always repeated.

Tests used:
[1] = pH of peptide solution before and after irradiation; assay type: physicochemical
Method: (§1) Samples were irradiated with gamma rays at 23, 25, 28 and 40 kGy with VPTrad Gammacell 220® High Dose Rate Co-60 Irradiator. In some embodiments, the run dose rate and duration time for 40 kGy irradiation were 6.30 kGy/hr and 6 hours 20 minutes 58 seconds, respectively. In other embodiments, the run dose rate and duration time for 28 kGy irradiation were 4.40 kGy/hr and 6 hours 22 minutes 31 seconds, respectively. In other embodiments, the run dose rate and duration time for 25 kGy irradiation were 6.58 kGy/hr and 3 hours 47 minutes 42 seconds, respectively. In other embodiments, the run dose rate and duration time for 23 kGy irradiation were 6.58 kGy/hr and 3 hours 29 minutes 29 seconds, respectively.
(§2) In other embodiments, samples were irradiated with X-ray at 25 kGy and 40 kGy with a Mevex accelerator (10 MeV, 20 kW).
(§3) In other embodiments, samples were irradiated with e-beam at 25 and 40 kGy with a Mevex accelerator (10 MeV, 20 kW).
(§4) Methods and test results: The appearance of PuraStat® was observed after each test. The pH of PuraStat® was tested using an Accumet AB15 pH meter (Fisher Scientific). HPLC tests were performed to evaluate the major peptide content after irradiation tests. Agilent HPLC 1100 (Agilent Technologies) was used for this study. Column temperature was kept at 25° C.

[2] = Mass spectrometry test for degradation of the peptides; assay type: physicochemical
Method: (§5) Mass spectrometry tests were carried out to investigate the degradation of the peptides after irradiation sterilization. An Agilent LC/MSD ion trap mass spectrometer was used for this study. The sample solutions were prepared as described above for the HPLC samples. Each sample was injected at 9 μL/min with a syringe pump. Each mass spectrum was recorded for 1 minute.
as §5, with “sterilization.” for “sterilization. An”, “Mass” for “Each mass”, “minute. The molecular weight of PuraStat® (Ac-(RADA)4-NH2) (SEQ ID NO:1) is 1712, which matches its calculated molecular weight from the major three peaks at m/3=572, m/2=857, and m=1713 in all the spectra of control and irradiated PuraStat® samples.” for “minute.”

[3] = Appearance of peptide solution before and after irradiation; assay type: physicochemical; settings: for appearance and pH, summary: after gamma, X-ray and e-beam irradiation at around 25~40 kGy
Method: as §1, §2, §3, §4

[4] = HPLC test for major peptide content; assay type: physicochemical; settings: N = 3, mean ± SD
Method: HPLC tests were performed to evaluate the major peptide content after irradiation tests. An Agilent HPLC 1100 (Agilent Technologies) was used for this study. The column temperature was kept at 25° C.
For RADA16 (SEQ ID NO:1) samples, solvent A was water with 0.1% TFA and solvent B was 80% acetonitrile with 0.1% TFA. Gradient of solvent B was controlled from 10% to 40% in 20 min and 40% for another 5 min at 25° C. Agilent Zorbax 300SB-C18 column (4.6 mm×250 mm, 5 μm, 300 Å) was used for this test. PuraStat® (RADA16 (SEQ ID NO:1) 2.5%) (40 mg) was mixed with 10 μL of DH2O and the mixture was vortexed. The mixture was further mixed with 500 μL of formic acid and vortexed. This mixture was then mixed with DH2O (4,450 μL) and vortexed. 20 μL samples were injected using an Agilent autosampler.
For IEIK13 (SEQ ID NO:3) samples, solvent A was water with 0.1% TFA and solvent B was 90% Acetonitrile with 0.1% TFA. The gradient of solvent B was controlled from 20% to 43% in 8 min, from 43% to 70% between 8 and 9.5 min, and from 70% to 95% between 9.5 and 30 min, and 95% for another 5 min at 25° C. An Agilent PLRP-S column (4.6 mm×250 mm, 8 μm, 300 Å) was used for this test. A 1.3% solution of IEIK13 (SEQ ID NO:3) was diluted with water with 0.1% TFA to 0.075% and the mixture was vortexed. 35 μL samples were injected using an Agilent autosampler.
For QLEL12 (SEQ ID NO:4) samples, solvent A was water and solvent B was 80% acetonitrile. The gradient of solvent B was controlled from 20% to 80% in 15 min and 80% for another 7 min at 25° C. An Agilent PLRP-S column (4.6 mm×250 mm, 8 μm, 300 Å) was used for this test. 0.15% w/v of QLEL12 (SEQ ID NO:4) solution was diluted to 0.01% with DH2O and vortexed. 50 μL samples were injected using an Agilent autosampler.
as §4
Solvent A was water with 0.1% TFA and solvent B was 80% Acetonitrile with 0.1% TFA. Gradient of solvent B was controlled from 10% to 40% in 20 min and 40% for another 5 min at 25° C. Agilent Zorbax 300SB-C18 column (4.6 mm×250 mm, 5 μm, 300 Å) was used for this test. PuraStat® (RADA16 (SEQ ID NO:1) 2.5%) (40 mg) were mixed with 10 μL of DH2O and 500 μL of formic acid and vortexed. And the mixture was mixed with DH2O (4,450 μL) and vortexed. 20 μL of samples were injected using an Agilent autosampler.
Agilent HPLC 1100 (Agilent Technologies) was used for this study. Column temperature was kept at 25° C. Agilent Zorbax 300SB-C18 column (4.6 mm×250 mm, […], 300 Å) was used for this test. Solvent A was water with 0.1% TFA and solvent B was 80% Acetonitrile with 0.1% TFA. Gradient of solvent B was controlled from 10% to 40% in 20 min and 40% for another 5 min at 25° C. PuraStat® (40 mg) was mixed with 10 μL of DH2O and 500 μL of formic acid and vortexed, and the mixture was mixed with DH2O (4,450 μL) and vortexed. […] of samples were injected using an Agilent autosampler.

[5] = RADA16 in solution; cited from earlier work
[6] = after gamma, X-ray or e-beam irradiation

Row | Substance | pH ([1]; X-ray irradiation at 25 kGy) | pH ([1]; X-ray irradiation at 40 kGy) | pH ([1]; control, not irradiated) | pH ([1]; e-beam irradiation at 25 kGy) | pH ([1]; e-beam irradiation at 40 kGy) | pH ([1]; gamma irradiation at 40 kGy) | degradation by mass spectrometry analysis [2, 6] | Appearance ([3]; X-ray irradiation at 25 kGy) | Appearance ([3]; X-ray irradiation at 40 kGy) | appearance and pH, summary [3] | Appearance ([3]; control, not irradiated) | Appearance ([3]; e-beam irradiation at 25 kGy) | Appearance ([3]; e-beam irradiation at 40 kGy) | Appearance ([3]; gamma irradiation at 40 kGy) | Major peptide content (%) ([4]; X-ray irradiation at 25 kGy) | Major peptide content (%) ([4]; X-ray irradiation at 40 kGy) | Major peptide content (%) ([4]; control, not irradiated) | Major peptide content (%) ([4]; e-beam irradiation at 25 kGy) | Major peptide content (%) ([4]; e-beam irradiation at 40 kGy) | Major peptide content (%) ([4]; gamma irradiation at 40 kGy) | also measured
1 | Ac-IEIKIEIKIEIKI-NH2 [IEIK13] | 3.0 | 3.0 | 3.0 | 3.0 | 3.0 | 3.0 | only insubstantially degraded | Clear and viscous | Clear and viscous | remained unchanged | Clear and viscous | Clear and viscous | Clear and viscous | Clear and viscous | 99.8% and 99.8 ± 0.1% | 99.9% and 99.9 ± 0.1% | 99.6% and 99.6 ± 0.0% | 99.6% and 99.6 ± 0.2% | 99.8% and 99.8 ± 0.1% | 99.8% and 99.8 ± 0.2% | pH ([1]; gamma irradiation at 28 kGy): 3.0; Appearance ([3]; gamma irradiation at 28 kGy): Clear and viscous
2 | Ac-KLDLKLDLKLDL-NH2 [KLD12, self-assembling peptide] | 2.2 | 2.2 | 2.2 | 2.2 | 2.2 | 2.2 |  | Clear and viscous | Clear and viscous | remained unchanged | Clear and viscous | Clear and viscous | Clear and viscous | Clear and viscous |  |  |  |  |  |  | 
3 | Ac-QLELQLELQLEL-NH2 [QLEL12, self-assembling peptide, degraded by irradiation] | 6.3 | 5.9 | 7.0 | 6.6 | 6.5 | 5.9 | significantly degraded | Clear and watery | Clear and watery |  | Clear and viscous | Clear and watery | Clear and watery | Clear and watery | 57.0% and 57.0 ± 4.9 % | 47.3% and 47.3 ± 1.3 % | 90.5% and 90.5 ± 1.3% | 51.9% and 51.9 ± 7.3 % | 55.6% and 55.6 ± 3.0 % | 40.7% and 40.7 ± 3.1 % | pH ([1]; gamma irradiation at 23 kGy): 6.7; pH ([1]; gamma irradiation at 25 kGy): 6.5; Appearance ([3]; gamma irradiation at 23 kGy): Clear and watery; Appearance ([3]; gamma irradiation at 25 kGy): Clear and watery
4 | Ac-RADARADARADARADA-NH2 [RADA16] |  |  |  |  |  |  | not degraded |  |  | remained unchanged |  |  |  |  | 73.8% | 71.9% | 78.3% | 76.0% | 70.0% | 69.7% | degradation on autoclaving [5]: complete thermal degradation; degradation by mass spectrometry analysis ([2]; autoclave treatment (121° C. for 20 min)): completely degraded; Major peptide content (%) ([4]; gamma irradiation at 23 kGy): 75.5%; Major peptide content (%) ([4]; gamma irradiation at 25 kGy): 74.6%; Major peptide content (%) ([4]; gamma irradiation at 28 kGy): 68.5%
